The values that follow come from the supplement of paper PMC9170038.

The test system of data set [1] is MS2 coat protein. As to the kind of experiment: apparent KD of MS2 coat protein, switch ON state; designed switch direction (-1 OFF switch, 1 ON switch): 1; higher = weaker reporter binding. The settings on record: FMN input: 0 or 200 uM; Eterna round: R93 (includes R88 designs). The procedure, abridged:
(§1)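 Apparent KD per design is the median of normalised cluster binding-curve fits. Designed RNA switches transcribed on-chip from Illumina sequencing clusters were titrated with SNAP-549-labelled MS2 coat protein in twofold steps from 0.7 or 1.5 nM to 3 µM, with 0.8–1.5 h down to 10–20 min per step. Buffer: 100 mM Tris-HCl pH 7.5, 80 mM KCl, 4 mM MgCl2, without or with constant ligand.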

Data set [2] deals with MS2 coat protein. As to the kind of experiment: apparent KD of MS2 coat protein, switch OFF state (with FMN for OFF switches, without FMN for ON switches); designed switch direction (-1 OFF switch, 1 ON switch): 1; higher = weaker reporter binding. The settings on record: FMN input: 0 or 200 uM; Eterna round: R93 (includes R88 designs). The procedure, abridged: as §1

As to “AAAGACAUAGUUCAGGAUAUGGUAAUAGUCACAUGAGGAUCACCCAUGUGCAUUUAUAUGCGCGAUCAGAAGGGAGGUAAAAAAA [SameState2 Malc#16]”, the “apparent KD of MS2 coat protein” value in data set [1] came to 17.5 nM; in data set [2], 21.9 nM.

Take “CAGGACAUAGGAUAGGAUAUAUGAAUAAUUACAUGAGGAUCACCCAUGUCCAUUUAUAUGGGAACAUAGAAGGGUUGUAGUUAUG [Mat - Same state - Malcolm Mod - D143]”: the “apparent KD of MS2 coat protein” value came out at 515 nM in data set [1] and 388 nM in data set [2].

On to “AACAAUCUAUCUGAGGAUAUCAUGUGAAAGACAUGAGGAUCACCCAUGUUGCAGGAAACUGCUCAUGAGAAGGCAGAUAGAUUGA [SS2: 1126]”, for which the “apparent KD of MS2 coat protein” value in data set [1] stood at 11.5 nM; in data set [2], 28.3 nM.

Consider “AGAAAUAAAACGCAGGAUAUCCAAAAGAAAACAUGAGGAUCACCCAUGUAAAAGAAAAUAAAAUGGGAGAAGGGCGAAAUAAAGA [Mat - Same State 2 - Eli mod - D92]”, for which the “apparent KD of MS2 coat protein” value was determined as 19.3 nM in data set [1] and 20.9 nM in data set [2].

For “AAAUAAAGGACUGAGGAUAUACCACAUGAAACAUGAGGAUCACCCAUGUUGAAAAACAGAGGGUGGUAGAAGGCAGUCCACAAAC [Same State 2.5d ( so lets mod hyphema)]”, the “apparent KD of MS2 coat protein” value in data set [1] worked out at 12.5 nM; in data set [2], 23.3 nM.

In the case of “AAAACACAUGAGGAUCACCCAUGUGAAAACAUGAGAGGAUAUGCAUGGAAAACAUGCUAUGCAGAAGGCUCAUGUG [SS1 - 8]”, the “apparent KD of MS2 coat protein” value in data set [1] was determined as 16.5 nM; in data set [2] it was 23.2 nM.

Consider “AAAAAACAUGAGGAUCACCCAUGUGAAGAUAUGGAAGGAUAUACAAAGACGAAAGUCAAAGUAGAAGGUCUAAAAG [76%, Meechl 3]”, for which the “apparent KD of MS2 coat protein” value in data set [1] amounted to 17.1 nM; in data set [2] it was 17.7 nM.

With “GAAAUACAUGAGGAUCACCCAUGUUAGGUGGGUCAAGGAUAUUGAUAUAAAUAAAAAACUCGAGAAGGUGAAUAAA [JR_SS001_Sub201]”, the “apparent KD of MS2 coat protein” value turned out to be 229 nM in data set [1] and 179 nM in data set [2].

Consider “AAAAAACAUGAGGAUCACCCAUGUCUUCGGACGUGAGGAUAUGUACAGACUUCGGUCUGUACAGAAGGCACGAAAA [SS1 - 1035]”, for which the “apparent KD of MS2 coat protein” value in data set [1] worked out at 22.7 nM; in data set [2] it was 114 nM.

Consider “AAAAAACAUGAGGAUCACCCAUGUGCAAAAUUCGCAGGAUAUUCCUCAAUUAAAUGAGAGGAAGAAGGGUGUAAAA [Nob's Hobby 25 - Jieux - Same State 1]”, for which the “apparent KD of MS2 coat protein” value in data set [1] is 27.4 nM; in data set [2], 130 nM.

Take “GAUAGGAAGAGAGAGGAUAUCCAAAGGAAAACAUGAGGAUCACCCAUGUAAAAGGUAGGAAAUUGGGAGAAGGCUCAAGAGAGAG [salish99-ss2-075]”: the results for the “apparent KD of MS2 coat protein” value in data set [1] and in data set [2] were 11.6 nM and 31.9 nM, respectively.

Consider “GAAAAACAUGAGGAUCACCCAUGUAAUACAACAUCAGGAUAUUGAUUUUACUAUGUAUUGCAAGAAGGGAUGAAAG [Mat - Same State 1 - Hyphema mod - D100]”, for which the “apparent KD of MS2 coat protein” value in data set [1] came to 57.2 nM; in data set [2], 42.6 nM.

For the sequence “AAAUAAAGAUACUAGGAUAUCCCGUGAGGUACAUGAGGAUCACCCAUGUGUAACGAACUCCCGCGGGAGAAGGAGUUGCACACGA [Inanuserra]”, the “apparent KD of MS2 coat protein” value was determined as 38 nM in data set [1] and 52.4 nM in data set [2].

Consider “GAAAUACAUGAGGAUCACCCAUGUUAGGUGGAUCAAGGAUAUCAAGGUAAAUAAAAACCUUGAGAAGGUGAAUAAA [JR_SS001_Sub204]”, for which the “apparent KD of MS2 coat protein” value in data set [1] worked out at 87.8 nM; in data set [2], 141 nM.

For “AAAAGACAUGAGGAUCACCCAUGUGAAAACGUAGGAGGAUAUGUCUGGAAAACAGACUGGACAGAAGGCCUGUGUC [SS1 - 33]”, the “apparent KD of MS2 coat protein” value worked out at 24.4 nM in data set [1] and 36 nM in data set [2].

With “UAACGCGCAUGCAAGGAUAUGUGCAGAGCUACAUGAGGAUCACCCAUGUGGUUAUGCUAUUGAAAACAGAAGGUGCCCUCGCUCA [Ceties]”, the “apparent KD of MS2 coat protein” value turned out to be 22.4 nM in data set [1] and 16.8 nM in data set [2].
